Molecular target: T1, human blood coagulation factor VIII C2 domain (human, UniProt P00451)
T1 construct: C2 domain of human blood coagulation factor VIII; pET15b with N-terminal His6 tag and a thrombin cleavage site; also called fVIII C2 domain
Experiment: crystal structure; C2 domain/3E6 FAB binary complex formed at 37 °C for 30 minutes with 1.5-fold molar excess of C2 domain, separated on Superdex 75; crystals from 10 mM MES (pH 6.4-6.8), 20% (w/v) PEG 8000; two complexes in the asymmetric unit; 2.61 Å
Settings: both partners purified

T1 sequence (P00451 2190-2351): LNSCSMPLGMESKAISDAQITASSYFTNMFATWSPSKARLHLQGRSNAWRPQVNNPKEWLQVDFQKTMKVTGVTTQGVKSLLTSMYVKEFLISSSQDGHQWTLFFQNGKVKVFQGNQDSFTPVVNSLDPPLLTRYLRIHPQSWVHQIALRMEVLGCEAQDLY

binding result: binds
B1: 3E6 antigen-binding fragment (FAB) of the classical anti-fVIII C2 domain inhibitory antibody 3E6 (Fab, V domains shown)
VH: QIQLVQSGPELKKPGKTVKISCKASDYTFTDYSLHWVKQAPGKGLKWMGWINTETGDPAYADDFKGRFAFSLETSVRTAYLQINNLKNEDTAIYFCAREDDGLASWGQGTTLTVSS
VL: QIVLTQSPAIMSASPGEKVTMTCSASSTVSYMYWYQQKPGSSPRFLISDTSNLASGVPVRFSGSGSGTSYSLTISRIEAEDAATYYCQHWSSYPLTFGGGTKLELK
notes: heavy chain of the 3E6 FAB is chain A (complex 1) and chain E (complex 2) of PDB 4XZU; light chain of the 3E6 FAB is chain B (complex 1) and chain F (complex 2) of PDB 4XZU; Fab made by papain cleavage of the murine monoclonal IgG; complex 1 (chains A, B) is the more complete model; also called 3E6 FAB; 3E6 antibody

From PMC4657047, “Structure of the Human Factor VIII C2 Domain in Complex with the 3E6 Inhibitory Antibody” (Scientific Reports, 2015)
